From publication PMC10901741, “Autonomous transposons tune their sequences to ensure somatic suppression”

T1: Halo-TRA2B RRM (UniProt P62995 111-201)
T1 sequence: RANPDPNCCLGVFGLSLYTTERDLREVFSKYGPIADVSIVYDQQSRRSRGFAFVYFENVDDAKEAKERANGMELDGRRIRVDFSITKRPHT


Key:
Conditions in all cases: protein: recombinant; tags: Halo (N-terminal 10xHis-TEV removed), OregonGreen on Halo; label: 3' CF 647 hydrazide (periodate-oxidized end); single-stranded
Halo-TRA2B RRM [1] = target: T1, Halo-TRA2B RRM; experiment: EMSA; protein 3.6-102.4 uM; clearly higher affinity than SAFB1 RRM; EMSA: 25 mM Tris-Cl pH 7.4, 50 mM KCl, 5% glycerol, 1 mM DTT, ~100 nM RNA, 30 min on ice, 8% native PAGE 0.5x TBE; pull-down: 25 mM Tris-Cl pH 7.4, ~75 mM KCl
Halo-SAFB1 RRM [2] = target: T2, Halo-SAFB1 RRM (UniProt Q15424 386-485); experiment: EMSA; protein 3.6-102.4 uM; lower affinity than TRA2B RRM; EMSA: 25 mM Tris-Cl pH 7.4, 50 mM KCl, 5% glycerol, 1 mM DTT, ~100 nM RNA, 30 min on ice, 8% native PAGE 0.5x TBE; pull-down: 25 mM Tris-Cl pH 7.4, ~75 mM KCl
Halo-SAFB1 RRM [3] = target: T2, Halo-SAFB1 RRM; experiment: EMSA; protein 3.6-102.4 uM; barely affected by m6A; EMSA: 25 mM Tris-Cl pH 7.4, 50 mM KCl, 5% glycerol, 1 mM DTT, ~100 nM RNA, 30 min on ice, 8% native PAGE 0.5x TBE; pull-down: 25 mM Tris-Cl pH 7.4, ~75 mM KCl
Halo-TRA2B RRM [4] = target: T1, Halo-TRA2B RRM; experiment: EMSA; protein 3.6-102.4 uM; lost all interactions; EMSA: 25 mM Tris-Cl pH 7.4, 50 mM KCl, 5% glycerol, 1 mM DTT, ~100 nM RNA, 30 min on ice, 8% native PAGE 0.5x TBE; pull-down: 25 mM Tris-Cl pH 7.4, ~75 mM KCl

T2 sequence (Q15424 386-485): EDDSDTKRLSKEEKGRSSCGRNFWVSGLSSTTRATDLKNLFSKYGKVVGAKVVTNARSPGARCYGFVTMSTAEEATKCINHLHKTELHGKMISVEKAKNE

Binder | binding result (Halo-TRA2B RRM [1]) | binding result (Halo-SAFB1 RRM [2]) | binding result (Halo-SAFB1 RRM [3]) | binding result (Halo-TRA2B RRM [4])
GGGAAGAAGAAGAAGAAGAAGAAGAU (ssRNA) [(AGA)x7 RNA, unmethylated] | binds | binds |  | 
GGGAAGAAGAAGAAGAAGAAGAAGAU (ssRNA, all A are N6-methyladenosine) [(m6AGm6A)x7 RNA, methylated] |  |  | binds | no binding
